# Test results as given in US20250340623A1 (AC IMMUNE, published 2025).
# Where no end group is shown, it is not given here. The star is where a group is joined. Biotin = O=C1N[C@H]2[C@H](CS[C@H]2CCCCC(=O)*)N1; Ahx = NCCCCCC(=O)O
# T1: 82-96aa
# T1 construct: also called alpha-synuclein peptide 82-96
# T1 peptide: {Biotin-Ahx}-VEGAGSIAAATGFVK
# T2: 91-105aa
# T2 peptide: {Biotin-Ahx}-ATGFVKKDQLGKNEE
# T3: 118-132aa
# T3 peptide: {Biotin-Ahx}-VDPDNEAYEMPSEEG
# T4: 127-140aa
# T4 peptide: {Biotin-Ahx}-MPSEEGYQDYEPEA
# T5: 10-24aa
# T5 construct: also called alpha-synuclein peptide 10-24
# T5 peptide: {Biotin-Ahx}-KAKEGVVAAAEKTKQ
# T6: 46-60aa
# T6 construct: also called alpha-synuclein peptide 46-60
# T6 peptide: {Biotin-Ahx}-EGVVHGVATVAEKTK
# T7: 1-14aa
# T7 construct: also called alpha-synuclein peptide 1-14
# T7 peptide: MDVFMKGLSKAKEG-biotin
# T8: 1-15aa
# T8 construct: also called alpha-synuclein peptide 1-15
# T8 peptide: {Biotin-Ahx}-MDVFMKGLSKAKEGV
# T9: 64-78aa
# T9 construct: also called alpha-synuclein peptide 64-78
# T9 peptide: {Biotin-Ahx}-TNVGGAVVTGVTAVA
# Tests used:
# 82-96aa = molecular target: T1, 82-96aa; assay: indirect ELISA on biotinylated 15-mer peptide
# Procedure: (§1) Serum-free supernatants were harvested from stable hybridomas. The supernatants containing antibodies of interest were then screened by an indirect ELISA assay to determine epitopes. Epitopes were first determined using a library of 15-mer peptides covering the entire sequence of human alpha-synuclein protein, spanning amino acids (aa) 1-140 with 9aa offset and […] overlap. […] Briefly, streptavidin-coated ELISA plates were blocked overnight at 4° C. […] Plates were washed with PBS/0.05% Tween®20 and then incubated with the hybridoma supernatants at 1/100 dilution for 1 hour at 25° C.
# 91-105aa [1] = molecular target: T2, 91-105aa; assay: indirect ELISA on biotinylated 15-mer peptide
# Procedure: as §1
# 118-132aa = molecular target: T3, 118-132aa; assay: indirect ELISA on biotinylated 15-mer peptide
# Procedure: as §1
# 127-140aa = molecular target: T4, 127-140aa; assay: indirect ELISA on biotinylated 15-mer peptide
# Procedure: as §1
# 10-24aa [2] = molecular target: T5, 10-24aa; assay: indirect ELISA on biotinylated 15-mer peptide
# Procedure: as §1
# 46-60aa = molecular target: T6, 46-60aa; assay: indirect ELISA on biotinylated 15-mer peptide
# Procedure: as §1
# 1-14aa [3] = molecular target: T7, 1-14aa; assay: indirect ELISA on biotinylated peptide, supernatant 1/100
# Procedure: as §1
# 1-15aa [4] = molecular target: T8, 1-15aa; assay: indirect ELISA on biotinylated 15-mer peptide, supernatant 1/100
# Procedure: as §1
# [5] = molecular target: T10, monomeric alpha-synuclein (UniProt P37840 1-140); assay: SPR, captured mAb
# Procedure: (§2) Non-covalent immobilization of alpha-synuclein antibodies was performed using a target immobilization method of 2000 response units (RU). Antibodies were diluted in 10 mM sodium acetate pH 5.5 (GE Healthcare, BR-1003-52) to a final concentration of 5 μg/mL.
# (§3) Binding affinity of alpha-synuclein antibodies to monomeric or fibrillar alpha-synuclein species was performed using a single-cycle kinetics method. The instrument was primed with 1×HBS-P+ buffer (10× stock from GE Healthcare, BR-1003-52 diluted in Milli-Q water). Injections of monomeric alpha-synuclein (aSyn) (Boston Biochem, SP-485), increasing in concentration from 0.62-50 nM prepared from serial 2-fold dilutions, were performed with contact times of 300 sec/injection at a flow rate of 30 μL/min. A dissociation phase of 900 sec followed the final 50 nM injection. Regeneration of the sensor to the goat anti-mouse antibody layer was achieved using 3 regenerations of 10 mM Glycine pH 1.7. […] Regeneration of the sensor to the goat anti-mouse antibody layer was achieved using 3 regenerations of 10 mM Glycine pH 1.7. Results obtained from single-cycle kinetics were evaluated by Biacore T200 evaluation software with 1:1 binding homogenous Langmuir model (with a global Rmax) with Cycle 5 as a blank subtraction. The following kinetic parameters were obtained: on-rate (ka), off-rate (kd), affinity constant (KD, ratio of kd by ka), maximum response (Rmax), and goodness of fit (Chi2).
# (§4) Non-covalent capture of the alpha-synuclein antibodies was performed in three separate runs.
# alpha-synuclein fibrils [6] = molecular target: T11, alpha-synuclein fibrils (UniProt P37840 1-140); assay: SPR, captured mAb
# Procedure: as §2, §3, §4
# 64-78aa = molecular target: T9, 64-78aa; assay: indirect ELISA on biotinylated 15-mer peptide
# Procedure: as §1
# [7] = molecular target: human full-length alpha-synuclein (human, UniProt P37840 1-140); assay: indirect ELISA on coated full-length alpha-synuclein, O.D. 405 nm
# Procedure: Antibody binding to human full-length alpha-synuclein was determined using an indirect ELISA. Full-length alpha-synuclein was diluted in carbonate/bicarbonate buffer pH 9.6 (Sigma, C3041) to a final concentration of 2.5pg/ml and coated onto ELISA plates overnight at 4° C. After washing with PBS/0.05% Polyethylene glycol sorbitan monolaurate (Tween®20) and blocking for 1 hour at 37° C. (PBS/0.05% Tween®20/1% BSA), plates were incubated for 2 hours at 37° C. with three-fold dilution series of alpha-synuclein antibodies from 1 μg/mL to 0.0005 μg/mL using PBS/0.05% Tween®20/1% BSA as diluent.
# 28-42aa = assay: indirect ELISA on biotinylated 15-mer peptide, supernatant 1/100
# Procedure: as §1
# 1-14aa [8] = molecular target: T7, 1-14aa; assay: indirect ELISA on biotinylated 15-mer peptide
# Procedure: as §1
# 1-15aa [9] = molecular target: T8, 1-15aa; assay: indirect ELISA on biotinylated 15-mer peptide
# Procedure: as §1
# 91-105aa [10] = molecular target: T2, 91-105aa; assay: indirect ELISA on biotinylated 15-mer peptide, supernatant 1/100
# Procedure: as §1
# alpha-synuclein seeds = alpha-synuclein seeds (UniProt P37840 1-140); assay: cell-based or functional assay
# 10-24aa [11] = molecular target: T5, 10-24aa; assay: indirect ELISA on biotinylated 15-mer peptide, supernatant 1/100
# Procedure: as §1
# alpha-synuclein fibrils [12] = molecular target: T11, alpha-synuclein fibrils; assay: SPR, captured mAb; alpha-synuclein fibrils
# Procedure: Any non-covalently bound antibodies were removed by three successive regenerations of 10 mM Glycine pH 1.7 (GE Healthcare, 28-9950-84). Immobilization levels were evaluated following ethanolamine capping (Bound) and finally following regeneration (Final). Non-covalent immobilization of alpha-synuclein antibodies was performed using a target immobilization method of 2000 response units (RU). Antibodies were diluted in 10 mM sodium acetate pH 5.5 (GE Healthcare, BR-1003-52) to a final concentration of 5 μg/mL.
# Binding affinity of alpha-synuclein antibodies to monomeric or fibrillar alpha-synuclein species was performed using a single-cycle kinetics method. The instrument was primed with 1×HBS-P+ buffer (10× stock from GE Healthcare, BR-1003-52 diluted in Milli-Q water). Injections of monomeric alpha-synuclein (aSyn) (Boston Biochem, SP-485), increasing in concentration from 0.62-50 nM prepared from serial 2-fold dilutions, were performed with contact times of 300 sec/injection at a flow rate of 30 μL/min. A dissociation phase of 900 sec followed the final 50 nM injection. Regeneration of the sensor to the goat anti-mouse antibody layer was achieved using 3 regenerations of 10 mM Glycine pH 1.7. […] Results obtained from single-cycle kinetics were evaluated by Biacore T200 evaluation software with 1:1 binding homogenous Langmuir model (with a global Rmax) with Cycle 5 as a blank subtraction. […]
# [13] = molecular target: T10, monomeric alpha-synuclein; assay: SPR, captured mAb; alpha-synuclein monomers
# Procedure: as §2
# Binding affinity of alpha-synuclein antibodies to monomeric or fibrillar alpha-synuclein species was performed using a single-cycle kinetics method. The instrument was primed with 1×HBS-P+ buffer (10× stock from GE Healthcare, BR-1003-52 diluted in Milli-Q water). Injections of monomeric alpha-synuclein (aSyn) (Boston Biochem, SP-485), increasing in concentration from 0.62-50 nM prepared from serial 2-fold dilutions, were performed with contact times of 300 sec/injection at a flow rate of 30 μL/min. A dissociation phase of 900 sec followed the final 50 nM injection. Regeneration of the sensor to the goat anti-mouse antibody layer was achieved using 3 regenerations of 10 mM Glycine pH 1.7. […] Regeneration of the sensor to the goat anti-mouse antibody layer was achieved using 3 regenerations of 10 mM Glycine pH 1.7. Results obtained from single-cycle kinetics were evaluated by Biacore T200 evaluation software with 1:1 binding homogenous Langmuir model (with a global Rmax) with Cycle 5 as a blank subtraction. […]
Binder,binding result (82-96aa),binding result (118-132aa),binding result (127-140aa),binding result (10-24aa [2]),binding result (46-60aa),koff [5] [s⁻¹],kon [5] [M⁻¹ s⁻¹],koff (alpha-synuclein fibrils [6]) [s⁻¹],kon (alpha-synuclein fibrils [6]) [M⁻¹ s⁻¹],binding result (1-14aa [8]),binding result (1-15aa [9]),also measured
"ACI-7079-2603C1-Ab3 (antibody, V domains shown, mouse hybridoma mAb; VH/VL only; also called 2603C1H6) VH: QVQLQQPGADLVKPGASVKLSCKASGYTFTSYWMQWTKQRPGQGLEWIGEIDPSDSYANYNQKFKGKATLTVDKYSSTAYMQLNSLTSEDSAVYYCALYDGPSYWGQGTLVTVS VL: ENVLTQSPAIMSASPGEKVTMTCSAGSSVSYMHWFQQKSSTSPKLWIYDTSKLPSGVPGRFSGSGSGNSYSLTISSMEAEDVATYYCFQGSGYPYTFGGGTKLEIK",no binding (tested: supernatant 1/100),no binding (tested: supernatant 1/100),no binding (tested: supernatant 1/100),no binding (tested: supernatant 1/100),no binding (tested: supernatant 1/100),,,,,,,binding result (91-105aa [1]): no binding (tested: supernatant 1/100); binding result (1-14aa [3]): binds; binding result (1-15aa [4]): binds
"ACI-7067-1206E5-Ab1 (antibody, V domains shown, mouse hybridoma mAb; VH/VL only; also called 1206E5D2) VH: QVQLQQSGPELVKPGASVKMSCKASGYTFTDYVISWVKQGTGQGLEWIGEIYPGNDSTYYNEKFKGKATLTADKSSNTAYMQLSSLTSEDSAVYFCAREGVSNGYLYLSMDYWGQGTSVTVSS VL: not shown",no binding (tested: supernatant 1/100),no binding (tested: supernatant 1/100),no binding (tested: supernatant 1/100),,no binding (tested: supernatant 1/100),6.36e-05,165000,0.000405,57300,,,Kd [5]: 0.4 nM; Kd (alpha-synuclein fibrils [6]): 8.3 nM; binding result (64-78aa): no binding (tested: supernatant 1/100); EC50 (read off the curve) [7]: ~0.04 µg/mL; binding result (28-42aa): binds
"ACI-7079-2606A6-Ab2 (antibody, V domains shown, mouse hybridoma mAb; VH/VL only; also called 2606A6D5) VH: QVQLQQSGPELVKPGASVKISCKASGFAFSSSWMNWVKQRPGKGLEWVGRIFPGDGDTNYDRKFKDKATLTADKSSSTAYMQLSSLTSEDSAVYFCARWTGGYDWFAYWGQGTLVTVSA VL: DIVLTQSPASLAVSLGQRATISCRASQSVSTSNYNYLHWYQQKPGQPPKLLITYASNLESGVPARFSGSGSGTDFTLNIHPVEEGDTATYYCQHSWEIPLTFGAGTKLELK",no binding (tested: supernatant 1/100),no binding (tested: supernatant 1/100),no binding (tested: supernatant 1/100),no binding (tested: supernatant 1/100),no binding (tested: supernatant 1/100),,,,,no binding (tested: supernatant 1/100),no binding (tested: supernatant 1/100),binding result (91-105aa [10]): binds
"ACI-7079-2506F3-Ab1 (antibody, V domains shown, mouse hybridoma mAb; VH/VL only; also called 2506F3E12) VH: QVQLQQPGAELVKPGASVKLSCKASGYTFTTYWMQWVKQRPGQGLEWIGEIDPSDSYINYNQKFKGKATLTVDTSSSTAFMQLSSLTSEDSAVYYCARGMMDYWGQGTSVTVSS VL: DVLMTQTPLSLPVSLGDQASISCRSSQSIVHSNGNTYLEWYLQKPGQSPKLLIYKVSNRFSGVPDRFSGSGSGTDFTLKISRVEAEDLGVYYCFKGSHVPYTFGGGTKLEIK",no binding (tested: supernatant 1/100),no binding (tested: supernatant 1/100),no binding (tested: supernatant 1/100),,no binding (tested: supernatant 1/100),,,,,no binding (tested: supernatant 1/100),no binding (tested: supernatant 1/100),"aggregation half-time (τ1/2) of seeded alpha-synuclein aggregation, ThT; no antibody 26.9 hours (alpha-synuclein seeds): 34.2 h; binding result (91-105aa [1]): no binding (tested: supernatant 1/100); binding result (10-24aa [11]): binds"
"ACI-7079-2501B11-Ab3 (antibody, V domains shown, mouse hybridoma mAb; VH/VL only; also called 2501B11C7) VH: QVQLQQSGPELVKPGASVKISCKASGYAFSSFWMNWMKQRPGKGLEWIGRIYPGDGDAHYNGEFKGRATLTADKSSSTAYMQLSSLTSEDSAVYFCARKGDFYGSNYDYWGQGTTLTVSS VL: QAVVTQESALTTSPGETVTLTCRSSTGAVTTSNYANWVQEKPDHLFTGLIGGTNNRAPGVPARFSGSLIGDKAALTITGAQTEDEAIYFCALWYSNHLVFGGGTRLTVL",no binding (tested: supernatant 1/100),no binding (tested: supernatant 1/100),no binding (tested: supernatant 1/100),no binding (tested: supernatant 1/100),no binding (tested: supernatant 1/100),,,,,no binding (tested: supernatant 1/100),no binding (tested: supernatant 1/100),binding result (91-105aa [10]): binds
"ACI-7067-4813-R4A-G7-rec1 (antibody, mouse IgG2a, V domains shown, from phage display of immunised mice; positive clones expressed recombinantly as murine IgG2a; VH/VL only; also called ACI-7067-R4A-G7-Ab-1) VH: EVQLEESGGGLVHPKGSLKLSCAASGFTFNSYAMHWVRQAPGKGLEWVARIRSKRSNYATYYADSVKDRFTISRDDSQSMVYLEMNNLEAEDTATYYCVRGGREAMDFWGQGTSVTVSS VL: QAVVTQESALTTSPGETVTLTCRSSTGAVTTSNYANWVQEKPDHLFTGLIGGTNNRAPGVPARFSGSLIGDKAALTITGAQTEDEAIYFCALWYSNHWVFGGGTKLTVL",,,,,,0.0737,735000,1.34e-07,4760,,,Kd (alpha-synuclein fibrils [12]): 0.041 nM; Kd [13]: 97 nM
"ACI-8032-6313G2-Ab1 (antibody, V domains shown, mouse hybridoma mAb; VH/VL only; also called 6313G2A10) VH: EVQLQQSGPELVKPGASVKISCKASGYTFTDYYMNWVKQSHGKSLEWIGDIDPNNGVTSYSQKFKGKATLTVDKSSSTAYMELRSLTSEDSAVYYCARTGYYGTSLYYAMDYWGQGTSVTVSS VL: DIVMSQSPSSLAVSAGEKVTMNCKSSQSLLNSRTRKNYLAWYQQKPGQSPKLLIYWASTRESGVPDRFIGSGSGTGFTLTISSVQAEDLAVYYCKQSYDLWTFGGGTKLEIK",,,,,,0.000541,33500,0.000829,338,,,Kd (alpha-synuclein fibrils [12]): 2460 nM; Kd [13]: 16.2 nM
